The record followed here is the supplement of paper PMC7125110.

The chains are these.
B1: glmS ribozyme (parent)
chain: AUAAAAGCGCCAGAACUACAGAAAUGUAGUUGACGAGGAGGAGGUUUAUCGAAUUUUCGGCGGAUGCCUCCAAA

What all share (settings): with glucosamine-6-phosphate
Series [1] covers variants of B1. The series can be described thus: kcat; higher = faster cleavage; RNA array. Put shortly: (§1)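 Weighted Michaelis–Menten fits across concentrations supplied kcat and KM, based on kobs from one- or two-exponential decay fits to normalised per-tile medians. The data came from barcoded ribozyme variants transcribed in situ by E. coli RNA polymerase on sequenced MiSeq chips and tracked at 37 °C by a hybridised Cy3 probe. Glucosamine-6-phosphate (40 μM to 10 mM) in HEPES/KCl/Mg(OAc)2 buffer was flowed in.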

Series [2] covers variants of B1. The series can be described thus: KM; higher = weaker cofactor use; RNA array. Put shortly:
as §1

Series [3] covers variants of B1. The series can be described thus: self-cleavage kobs at 40 uM GlcN6P; higher = faster cleavage; RNA array. Put shortly:
as §1

Series [4] covers variants of B1. The series can be described thus: self-cleavage kobs at 160 uM GlcN6P; higher = faster cleavage; RNA array. The procedure, abridged:
as §1

In series [5] the parent is B1. The series can be described thus: self-cleavage kobs at 640 uM GlcN6P; higher = faster cleavage; RNA array. Put shortly:
as §1

In series [6] the parent is B1. The series can be described thus: self-cleavage kobs at 2500 uM GlcN6P; higher = faster cleavage; RNA array. The procedure, abridged: as §1
Variants of B1 are the subject of series [7]. The series can be described thus: self-cleavage kobs at 10000 uM GlcN6P; higher = faster cleavage; RNA array. Put shortly: as §1

± gives the standard error. For some of these results: This sample holds only a part of the variants without activity.

Consider A64G C68A, for which the kcat in the series with glucosamine-6-phosphate [1] is less than 1e-05 s⁻¹.
Regarding A15U C61A, the kcat with glucosamine-6-phosphate [1] is less than 1e-05 s⁻¹. Moreover, the KM with glucosamine-6-phosphate [2] came to 829 ± 70 µM. For the same variant, the “self-cleavage kobs at 40 uM GlcN6P” value with glucosamine-6-phosphate [3] is less than 1e-05 s⁻¹.
Turning to A52G G59A, the kcat with glucosamine-6-phosphate [1] was less than 1e-05 s⁻¹. Besides, the “self-cleavage kobs at 40 uM GlcN6P” value in the series with glucosamine-6-phosphate [3] is less than 1e-05 s⁻¹.
Regarding A53G U56A, in the series with glucosamine-6-phosphate [1], the kcat was 0.0133 ± 0.0047 s⁻¹. For the same variant, the KM in the series with glucosamine-6-phosphate [2] is 1830 ± 890 µM. Also, the “self-cleavage kobs at 40 uM GlcN6P” value with glucosamine-6-phosphate [3] was 0.000437 ± 9e-05 s⁻¹. Moreover, the “self-cleavage kobs at 160 uM GlcN6P” value with glucosamine-6-phosphate [4] was 0.00116 ± 0.00021 s⁻¹. In the series with glucosamine-6-phosphate [5], the “self-cleavage kobs at 640 uM GlcN6P” value was found to be 0.00273 ± 0.00051 s⁻¹. Moreover, in the series with glucosamine-6-phosphate [6], the “self-cleavage kobs at 2500 uM GlcN6P” value was 0.00663 ± 0.0019 s⁻¹. Moreover, in the series with glucosamine-6-phosphate [7], the “self-cleavage kobs at 10000 uM GlcN6P” value turned out to be 0.0137 ± 0.0026 s⁻¹.
For G38U A64U, in the series with glucosamine-6-phosphate [1], the kcat is less than 1e-05 s⁻¹. In addition, the “self-cleavage kobs at 40 uM GlcN6P” value with glucosamine-6-phosphate [3] was less than 1e-05 s⁻¹. Also, in the series with glucosamine-6-phosphate [5], the “self-cleavage kobs at 640 uM GlcN6P” value was less than 1e-05 s⁻¹. For the same variant, the “self-cleavage kobs at 2500 uM GlcN6P” value with glucosamine-6-phosphate [6] was less than 1e-05 s⁻¹.
Consider C11A A52G C58G, for which the kcat with glucosamine-6-phosphate [1] was 1.09e-05 ± 2.8e-06 s⁻¹. Besides, the “self-cleavage kobs at 160 uM GlcN6P” value in the series with glucosamine-6-phosphate [4] is less than 1e-05 s⁻¹.
Regarding A14C C68U, in the series with glucosamine-6-phosphate [1], the kcat is 0.000506 ± 4e-05 s⁻¹. In the series with glucosamine-6-phosphate [2], the KM was found to be 1460 ± 250 µM. Besides, the “self-cleavage kobs at 160 uM GlcN6P” value with glucosamine-6-phosphate [4] amounted to 6.97e-05 ± 2.3e-05 s⁻¹. The “self-cleavage kobs at 640 uM GlcN6P” value with glucosamine-6-phosphate [5] is 0.00015 ± 2.1e-05 s⁻¹. In addition, the “self-cleavage kobs at 2500 uM GlcN6P” value in the series with glucosamine-6-phosphate [6] is 0.000305 ± 6.4e-05 s⁻¹. In addition, the “self-cleavage kobs at 10000 uM GlcN6P” value in the series with glucosamine-6-phosphate [7] worked out at 0.000447 ± 5e-05 s⁻¹.
G29A U54G: in the series with glucosamine-6-phosphate [1], the kcat was 0.00345 ± 0.00074 s⁻¹. Moreover, the KM in the series with glucosamine-6-phosphate [2] was determined as 2790 ± 830 µM. For the same variant, in the series with glucosamine-6-phosphate [3], the “self-cleavage kobs at 40 uM GlcN6P” value is 5.97e-05 ± 1.1e-05 s⁻¹. The “self-cleavage kobs at 160 uM GlcN6P” value in the series with glucosamine-6-phosphate [4] was determined as 0.000165 ± 2.7e-05 s⁻¹. Also, the “self-cleavage kobs at 640 uM GlcN6P” value with glucosamine-6-phosphate [5] turned out to be 0.000767 ± 0.00012 s⁻¹. Moreover, the “self-cleavage kobs at 2500 uM GlcN6P” value with glucosamine-6-phosphate [6] worked out at 0.00138 ± 0.00023 s⁻¹. For the same variant, in the series with glucosamine-6-phosphate [7], the “self-cleavage kobs at 10000 uM GlcN6P” value was found to be 0.00293 ± 0.00042 s⁻¹.
Turning to G37A C68U, the kcat with glucosamine-6-phosphate [1] came to 6.89e-05 ± 7.5e-06 s⁻¹. In the series with glucosamine-6-phosphate [2], the KM worked out at 2690 ± 820 µM. The “self-cleavage kobs at 640 uM GlcN6P” value with glucosamine-6-phosphate [5] came to 1.94e-05 ± 7.7e-06 s⁻¹. The “self-cleavage kobs at 2500 uM GlcN6P” value with glucosamine-6-phosphate [6] was found to be 3.08e-05 ± 5.5e-06 s⁻¹. The “self-cleavage kobs at 10000 uM GlcN6P” value with glucosamine-6-phosphate [7] is 5.51e-05 ± 6e-06 s⁻¹.
As to C11U C67G, the kcat in the series with glucosamine-6-phosphate [1] was found to be 0.000216 ± 2.7e-05 s⁻¹. The KM with glucosamine-6-phosphate [2] came out at 633 ± 220 µM. The “self-cleavage kobs at 40 uM GlcN6P” value with glucosamine-6-phosphate [3] worked out at 2.61e-05 ± 1.2e-05 s⁻¹. The “self-cleavage kobs at 160 uM GlcN6P” value with glucosamine-6-phosphate [4] was 4.28e-05 ± 9.2e-06 s⁻¹. Also, the “self-cleavage kobs at 640 uM GlcN6P” value with glucosamine-6-phosphate [5] worked out at 0.000102 ± 1e-05 s⁻¹. For the same variant, the “self-cleavage kobs at 2500 uM GlcN6P” value in the series with glucosamine-6-phosphate [6] was determined as 0.000218 ± 2.2e-05 s⁻¹. Also, the “self-cleavage kobs at 10000 uM GlcN6P” value in the series with glucosamine-6-phosphate [7] was found to be 0.000189 ± 1.7e-05 s⁻¹.
With C8U G37A C58G, the kcat in the series with glucosamine-6-phosphate [1] was less than 1e-05 s⁻¹.
On the same count and under the same terms, the figure for G32C C58U is 3.33e-05 ± 5.5e-06 s⁻¹.
As to G9U C11A, the kcat with glucosamine-6-phosphate [1] is less than 1e-05 s⁻¹. Further, the KM with glucosamine-6-phosphate [2] is 159 ± 62 µM. Further, the “self-cleavage kobs at 40 uM GlcN6P” value with glucosamine-6-phosphate [3] is less than 1e-05 s⁻¹. Further, the “self-cleavage kobs at 160 uM GlcN6P” value with glucosamine-6-phosphate [4] was less than 1e-05 s⁻¹. In addition, the “self-cleavage kobs at 640 uM GlcN6P” value with glucosamine-6-phosphate [5] is less than 1e-05 s⁻¹.
Regarding C10U U55A, in the series with glucosamine-6-phosphate [1], the kcat is 1.86e-05 ± 2.2e-06 s⁻¹. Moreover, the “self-cleavage kobs at 10000 uM GlcN6P” value with glucosamine-6-phosphate [7] amounted to 1.77e-05 ± 7.8e-06 s⁻¹.
On to A12G, for which the kcat with glucosamine-6-phosphate [1] was found to be 0.00143 ± 6.1e-05 s⁻¹. In addition, in the series with glucosamine-6-phosphate [2], the KM worked out at 4240 ± 270 µM. The “self-cleavage kobs at 40 uM GlcN6P” value with glucosamine-6-phosphate [3] was 1.01e-05 ± 1.5e-06 s⁻¹. Besides, the “self-cleavage kobs at 160 uM GlcN6P” value in the series with glucosamine-6-phosphate [4] stood at 5.14e-05 ± 1.6e-06 s⁻¹. In addition, the “self-cleavage kobs at 640 uM GlcN6P” value with glucosamine-6-phosphate [5] stood at 0.000189 ± 3.5e-06 s⁻¹. Further, the “self-cleavage kobs at 2500 uM GlcN6P” value with glucosamine-6-phosphate [6] worked out at 0.000587 ± 2.8e-05 s⁻¹. Further, in the series with glucosamine-6-phosphate [7], the “self-cleavage kobs at 10000 uM GlcN6P” value was 0.001 ± 1.6e-05 s⁻¹.
Consider G40U G59A, for which, in the series with glucosamine-6-phosphate [1], the kcat is less than 1e-05 s⁻¹. Further, the “self-cleavage kobs at 160 uM GlcN6P” value with glucosamine-6-phosphate [4] was less than 1e-05 s⁻¹. Besides, the “self-cleavage kobs at 640 uM GlcN6P” value with glucosamine-6-phosphate [5] is less than 1e-05 s⁻¹.
For the variant A15G A42U, the kcat in the series with glucosamine-6-phosphate [1] amounted to 0.000248 ± 4.1e-05 s⁻¹. Moreover, in the series with glucosamine-6-phosphate [2], the KM is 1410 ± 570 µM. For the same variant, the “self-cleavage kobs at 160 uM GlcN6P” value with glucosamine-6-phosphate [4] was determined as 2.77e-05 ± 1.4e-05 s⁻¹. In the series with glucosamine-6-phosphate [5], the “self-cleavage kobs at 640 uM GlcN6P” value came to 6.62e-05 ± 1.7e-05 s⁻¹. The “self-cleavage kobs at 2500 uM GlcN6P” value in the series with glucosamine-6-phosphate [6] was determined as 0.000216 ± 3.8e-05 s⁻¹. Besides, the “self-cleavage kobs at 10000 uM GlcN6P” value with glucosamine-6-phosphate [7] came out at 0.000203 ± 3e-05 s⁻¹.
Consider G41C U45A, for which the kcat with glucosamine-6-phosphate [1] came out at 0.000121 ± 5.5e-06 s⁻¹. Moreover, the KM with glucosamine-6-phosphate [2] was determined as 1240 ± 160 µM. Further, the “self-cleavage kobs at 640 uM GlcN6P” value with glucosamine-6-phosphate [5] worked out at 4.19e-05 ± 7.6e-06 s⁻¹. Further, the “self-cleavage kobs at 10000 uM GlcN6P” value with glucosamine-6-phosphate [7] was 0.000108 ± 1.1e-05 s⁻¹.

Usually kcat stands for the maximal rate divided by the concentration of active sites. In general, KM refers to the concentration of substrate that gives half-maximal velocity.
